This data set addresses Cys101 (UniProt position 101, YVTSVCTGSLV). Briefly: crystallography. The settings on record: data collected at 100 K; crystals grown at 20°C; 200 mM MgCl2 in reservoir; 100 mM tris-HCl (pH 8.3), sodium citrate (pH 6.0), or sodium acetate (pH 4.2, 5.0, 5.4); 23% PEG 3350, 2 mM DTT; substrate-free wild-type enzyme in crystals, reduced Cys101 (DTT present).

We go through 1 substance from paper PMC10971408.

Several values for one entry are separate records, joined by “and”; a condition that tells them apart may be missing. Identical values can stand only once.

With “Isocyanide hydratase (ICH, PfICH) (Pseudomonas fluorescens)”, the pKa was 5.7 and 5 to 6.

Usually pKa stands for the pH at which an ionisable group is half protonated. Low values mean a group that gives up its proton readily, high ones a group that holds its proton tightly.
